# Results from patent publication US20160115241A1 (Amgen, published 2016).
# T1: cynomolgus monkey CD3 epsilon chain (CD3ε) (cynomolgus monkey (Macaca fascicularis), UniProt Q95LI5 22-198)
# T1 chain: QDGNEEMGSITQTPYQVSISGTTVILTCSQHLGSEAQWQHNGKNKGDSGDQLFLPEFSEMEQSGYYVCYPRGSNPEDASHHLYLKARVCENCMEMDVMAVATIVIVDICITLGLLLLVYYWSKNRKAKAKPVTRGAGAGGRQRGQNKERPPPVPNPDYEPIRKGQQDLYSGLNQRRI
# B1: H69072.4 (anti-MSLN/CD3ε heterodimeric bispecific antibody) (bispecific antibody)
# chain 1: DIQMTQSPSSVSASVGDRVTITCRASQGISSWLAWYQQKPGKAPKLLIYAASSLQSGVPSRFSGSGSGAAFTLTISSLQPEDFATYFCQQANSFPLTFAGGTKVDIKRGGGGSGGGGSQVQLQESGPGLVKPSQTLSLTCTVSGGSINNNNYYWTWIRQHPGKGLEWIGYIYYSGSTFYNPSLKSRVTISVDTSKTQFSLKLSSVTAADTAVYYCAREDTMTGLDVWGQGTTVTVSSASTKGPSVFPLAPCSRSTSESTAALGCLVKDYFPEPVTVSWNSGALTSGVHTFPAVLQSSGLYSLSSVVTVPSSNFGTQTYTCNVDHKPSNTKVDKTVGGGGSAAAVPRDLEVVAATPTSLLISWDAPHHGVAYYRITYGETGGNSPVQEFTVPGSKSTATISGLKPGVDYTINVYAVLAYPRGYPLSKPISINYRTDYKDDDDKGSSHHHHHH
# chain 2: DIQMTQSPSSLSASVGDRVTITCRASQSINNYLNWYQQKPGKAPTLLIYAASSLQSGVPSRFSGSRSGTDFTLTISSLQPEDFAAYFCQQTYSNPTFGQGTKVEVKGGGGSGGGGSQVQLVESGGGVVQPGRSLRLSCAASGFTFSSYGMHWVRQAPGKGLEWVAVISYPGNTKYYADSVKGRFTISRDNSKNTLYLQMNSLRAEDTAVYFCARDQKEWRLIFDYWGQGTLVTVSSRTVAAPSVFIFPPSDEQLKSGTASVVCLLNNFYPREAKVQWKVDNALQSGNSQESVTEQDSKDSTYSLSSTLTLSKADYEKHKVYACEVTHQGLSSPVTKSFNRGEC
# B2: P73356.3 (anti-MSLN/CD3ε heterodimeric bispecific antibody with Fc region) (bispecific antibody, human IgG1)
# chain 1: QVQLQESGPGLVKPSQTLSLTCTVSGGSINNNNYYWTWIRQHPGKGLEWIGYIYYSGSTFYNPSLKSRVTISVDTSKTQFSLKLSSVTAADTAVYYCAREDTMTGLDVWGQGTLVTVSSGGGGSGGGGSSSYELTQPPSVSVSPGQTARITCSGDALPKKYAYWYQQKSGQAPVLVIYEATKRPSGIPERFSGSSSGTMATLTLSGAQVEDEADYYCYSTDSTNYHWVFGGGTKLTVLGASTKGPSVFPLAPCSRSTSESTAALGCLVKDYFPEPVTVSWNSGALTSGVHTFPAVLQSSGLYSLSSVVTVPSSNFGTQTYTCNVDHKPSNTKVDKTVAAAEPKSSDKTHTCPPCPAPELLGGPSVFLFPPKPKDTLMISRTPEVTCVVVDVSHEDPEVKFNWYVDGVEVHNAKTKPREEQYNSTYRVVSVLTVLHQDWLNGKEYKCKVSNKQLPAPIEKTISKAKGQPREPQVYTLPPSRKEMTKNQVSLTCLVKGFYPSDIAVEWESNGQPENNYKTTPPVLKSDGSFFLYSKLTVDKSRWQQGNVFSCSVMHEALHNHYTQKSLSLSPGKAAAHHHHHH
# chain 2: EVQLVESGGGLVKPGVSLRLSCAASGFTFSRYGMNWVRQAPGKGLEWVSSISSSGTYIKYADSVKGRFTISRDNAKNSLNLQMNSLRAEDTAVYYCARDRDRYPLDYWGQGTLVTVSSGGGGSGGGGSDIQMTQSPSSLSASVGDRVTITCRASQSINNYLNWYQQKPGKAPTLLIYAASSLQSGVPSRFSGSRSGTDFTLTISSLQPEDFAAYFCQQTYSNPTFGQGTKVEVKRTVAAPSVFIFPPSDEQLKSGTASVVCLLNNFYPREAKVQWKVDNALQSGNSQESVTEQDSKDSTYSLSSTLTLSKADYEKHKVYACEVTHQGLSSPVTKSFNRGECAAAEPKSSDKTHTCPPCPAPELLGGPSVFLFPPKPKDTLMISRTPEVTCVVVAVSHEDPEVKFNWYVDGVEVHNAKTKPREEQYNSTYRVVSVLTVLHQDWLNGKEYKCKVSNKALPAPIEKTISKAKGQPREPQVYTLPPSREEMTKNQVSLTCLVKGFYPSDIAVEWESNGQPENNYDTTPPVLDSDGSFFLYSDLTVDKSRWQQGNVFSCSVMHEALHNHYTQKSLSLSPGK
# B3: H71365.2 (anti-MSLN/CD3ε heterodimeric bispecific antibody) (bispecific antibody)
# chain 1: QVQLVESGGGVVQPGRSLRLSCAASGFTFSSYGMHWVRQAPGKGLEWVAVISYPGNTKYYADSVKGRFTISRDNSKNTLYLQMNSLRAEDTAVYFCARDQKEWRLIFDYWGQGTLVTVSSGGGGSGGGGSQVQLQESGPGLVKPSQTLSLTCTVSGGSINNNNYYWTWIRQHPGKGLEWIGYIYYSGSTFYNPSLKSRVTISVDTSKTQFSLKLSSVTAADTAVYYCAREDTMTGLDVWGQGTTVTVSSASTKGPSVFPLAPCSRSTSESTAALGCLVKDYFPEPVTVSWNSGALTSGVHTFPAVLQSSGLYSLSSVVTVPSSNFGTQTYTCNVDHKPSNTKVDKTVGGGGSAAAVPRDLEVVAATPTSLLISWDAPHHGVAYYRITYGETGGNSPVQEFTVPGSKSTATISGLKPGVDYTINVYAVLAYPRGYPLSKPISINYRTDYKDDDDKGSSHHHHHH
# chain 2: DIQMTQSPSSVSASVGDRVTITCRASQGISSWLAWYQQKPGKAPKLLIYAASSLQSGVPSRFSGSGSGAAFTLTISSLQPEDFATYFCQQANSFPLTFAGGTKVDIKRGGGGSGGGGSDIQMTQSPSSLSASVGDRVTITCRASQSINNYLNWYQQKPGKAPTLLIYAASSLQSGVPSRFSGSRSGTDFTLTISSLQPEDFAAYFCQQTYSNPTFGQGTKVEVKRTVAAPSVFIFPPSDEQLKSGTASVVCLLNNFYPREAKVQWKVDNALQSGNSQESVTEQDSKDSTYSLSSTLTLSKADYEKHKVYACEVTHQGLSSPVTKSFNRGEC
# B4: P73352.3 (anti-MSLN/CD3ε heterodimeric bispecific antibody with Fc region, without CH1 and CL) (bispecific antibody)
# chain 1: EVQLVESGGGLVKPGVSLRLSCAASGFTFSRYGMNWVRQAPGKGLEWVSSISSSGTYIKYADSVKGRFTISRDNAKNSLNLQMNSLRAEDTAVYYCARDRDRYPLDYWGQGTLVTVSSGGGGSGGGGSDIQMTQSPSSLSASVGDRVTITCRASQSINNYLNWYQQKPGKAPTLLIYAASSLQSGVPSRFSGSRSGTDFTLTISSLQPEDFAAYFCQQTYSNPTFGQGTKVEVKRAAAEPKSSDKTHTCPPCPAPELLGGPSVFLFPPKPKDTLMISRTPEVTCVVVNVSHEDPEVKFNWYVDGVEVHNAKTKPREEQYNSTYRVVSVLTVLHQDWLNGKEYKCKVSNKALPAPIEKTISKAKGQPREPQVYTLPPSREEMTKNQVSLTCLVKGFYPSDIAVEWESNGQPENNYDTTPPVLDSDGSFFLYSDLTVDKSRWQQGNVFSCSVMHEALHNHYTQKSLSLSPGK
# chain 2: QVQLQESGPGLVKPSQTLSLTCTVSGGSINNNNYYWTWIRQHPGKGLEWIGYIYYSGSTFYNPSLKSRVTISVDTSKTQFSLKLSSVTAADTAVYYCAREDTMTGLDVWGQGTLVTVSSGGGGSGGGGSSSYELTQPPSVSVSPGQTARITCSGDALPKKYAYWYQQKSGQAPVLVIYEATKRPSGIPERFSGSSSGTMATLTLSGAQVEDEADYYCYSTDSTNYHWVFGGGTKLTVLGAAAEPKSSDKTHTCPPCPAPELLGGPSVFLFPPKPKDTLMISRTPEVTCVVVDVSHEDPEVKFNWYVDGVEVHNAKTKPREEQYNSTYRVVSVLTVLHQDWLNGKEYKCKVSNKQLPAPIEKTISKAKGQPREPQVYTLPPSRKEMTKNQVSLTCLVKGFYPSDIAVEWESNGQPENNYKTTPPVLKSDGSFFLYSKLTVDKSRWQQGNVFSCSVMHEALHNHYTQKSLSLSPGKAAAHHHHHH
# Legend:
# [1] = target: T1, cynomolgus monkey CD3 epsilon chain …; assay: cell-based or functional assay
# [2] = target: T2, human CD3 epsilon chain (CD3ε) (human, UniProt P07766 22-207); assay: FACS on isolated human T cells; FITC anti-human light chain secondary
# T2 construct: also called CD3ε on human T cells; human CD3ε
# Method: (§1) The heterodimeric bispecific antibodies described in Example 1 were produced in HEK 293 cells and were assayed by fluorescence activated cell sorting (FACS) for binding to T cells, which express CD3ε, and to a human ovarian cancer cell line, Ovcar-8, which expresses mesothelin. Briefly, the heterodimeric bispecific antibodies were incubated with about 50,000 Ovcar-8 cells or isolated human or cynomolgus monkey T cells at 4° C. for one hour. The cells were then washed and stained with a fluorescein isothiocyanate (FITC)-conjugated anti-human light chain secondary antibody and analyzed by flow cytometry. The relative binding was represented by the geometric mean of fluorescence intensity.
# [3] = target: T1, cynomolgus monkey CD3 epsilon chain …; assay: FACS on isolated cynomolgus monkey T cells; FITC anti-human light chain secondary
# Method: as §1
# human mesothelin (MSLN) = human mesothelin (MSLN) (human, UniProt Q13421 296-598); assay: cell-based or functional assay
# Sequence of human mesothelin (MSLN) (Q13421 other isoform, or with tags, fused parts or gaps limits assumed): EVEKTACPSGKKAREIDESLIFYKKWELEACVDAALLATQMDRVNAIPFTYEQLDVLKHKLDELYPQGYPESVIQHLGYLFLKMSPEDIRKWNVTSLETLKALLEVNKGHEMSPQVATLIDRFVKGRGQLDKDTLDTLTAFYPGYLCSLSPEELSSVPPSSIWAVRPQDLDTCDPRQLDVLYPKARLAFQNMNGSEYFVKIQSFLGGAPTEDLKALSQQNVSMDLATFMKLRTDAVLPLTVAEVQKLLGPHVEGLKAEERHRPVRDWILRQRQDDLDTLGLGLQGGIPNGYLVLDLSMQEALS
# T2 sequence (P07766 22-207 limits assumed): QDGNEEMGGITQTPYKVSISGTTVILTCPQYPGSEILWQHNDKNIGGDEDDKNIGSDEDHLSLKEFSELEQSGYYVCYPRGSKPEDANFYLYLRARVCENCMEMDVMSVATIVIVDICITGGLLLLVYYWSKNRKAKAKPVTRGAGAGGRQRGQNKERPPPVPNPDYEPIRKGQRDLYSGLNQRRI
Binder,"Cyno TDCC EC50 (pM), Ovcar-8 target cells with cynomolgus monkey T cells [1] [pM]","Cyno TDCC Max killing (%), Ovcar-8 target cells with cynomolgus monkey T cells [1] [%]",FACS binding (geometric mean) [2],FACS binding (geometric mean) [3],"human TDCC EC50, killing of Ovcar-8 cells (human mesothelin (MSLN)) [pM]"
B1,18.8,91,11 geometric mean of fluorescence intensity,110 geometric mean of fluorescence intensity,–
B2,–,–,–,–,< 1
B3,8.1,86,66 geometric mean of fluorescence intensity,276 geometric mean of fluorescence intensity,–
B4,–,–,–,–,< 1
